Results: article PMC3961693

Biological target: IL-6 (human) (UniProt P05231)
Settings: 32 nt; six 2'-O-methyl; eight Bn-dU; one Pe-dU; one Nap-dU (position 12); Bn-dU at 7, 8, 14, 15, 22, 23, 27, 30 named in text; binding assay method and buffer not given in the …

Chain of IL-6 (human) (P05231 30-212): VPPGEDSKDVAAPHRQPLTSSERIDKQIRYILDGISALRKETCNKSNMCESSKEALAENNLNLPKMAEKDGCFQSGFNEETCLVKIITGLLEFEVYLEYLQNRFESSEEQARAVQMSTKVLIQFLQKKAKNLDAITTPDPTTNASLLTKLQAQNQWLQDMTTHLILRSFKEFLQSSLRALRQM

Sequence: GGCAGGUUUGGUAUUAACACGUUAAGUCGUGG [SL1025]
- Kd: 0.2 nM
